From article PMC3795262 come the findings set out here.

For the test, the target named is Full-length recombinant human TSG-6 (secreted product of tumor necrosis factor-stimulated gene-6) (human) (UniProt P98066). In words: not stated; preliminary results, data not shown.
Sequence of UniProt P98066 (P98066 18-277): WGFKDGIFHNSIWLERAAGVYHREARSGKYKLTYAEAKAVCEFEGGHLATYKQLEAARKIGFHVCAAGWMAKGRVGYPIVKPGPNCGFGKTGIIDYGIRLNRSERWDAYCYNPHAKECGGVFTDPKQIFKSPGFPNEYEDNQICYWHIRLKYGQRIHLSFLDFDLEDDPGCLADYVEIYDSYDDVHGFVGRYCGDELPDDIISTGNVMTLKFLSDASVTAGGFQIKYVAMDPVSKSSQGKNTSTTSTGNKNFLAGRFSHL

Take “Inter-α-inhibitor (from UniProt P19827 35-672; P19823 55-702) (complex)”: the dissociation constant (Kd) (commonly the equilibrium constant for the complex coming apart) was 10 nM.
